The record followed here is US20030120038A1 (MERCK, published 2003).

Experiment [1] addresses T1, sVEGF-RI, natural soluble form of the FLT VEGF receptor, expressed by baculovirus in Sf9 insect cells (human, UniProt P17948 27-656).
T1 construct: also called sFLT; sFlt
Put plainly: 96 well plate competition, immobilized sFLT, tracer [125I]PlGF, competitor unlabeled PlGF. The protocol:
(§1) Briefly, sVEGF-RI, 50 to […] partially purified by Mono Q chromatography (Pharmacia), was diluted to 10 ml in 25 mM TRIS, pH 7.4, 100 mM NaCl, 20 mM NH₄HCO_{3.} Aliquots ([…]) were absorbed to the surface of a 96 well plate for 18 hours at 4° C., the plates were then washed twice with blocking buffer (DME, 25 mM HEPES, pH 7.5, 0.5% gelatin) and the nonspecific sites were blocked in the same buffer for 6 hours at 4° C. The plate was then washed twice in binding buffer. […] The wells were washed three times with […] of binding buffer, the bound protein was solubilized with […] of 1% SDS, 0.5% BSA and counted in a g counter. The results, shown in FIG. 7, were analyzed by the method of Scatchard [Scatchard, G., (1949) Ann. N.Y. Acad. Sci., 51, pp. 660-672].

Experiment [2] deals with T2, Ex-KDR, purified extracellular domain of the KDR VEGF receptor (UniProt P35968 20-764, limits assumed).
T2 construct: extracellular domain; It may be the same construct; also called extracellular region of KDR
T2 sequence (P35968 20-764 limits assumed): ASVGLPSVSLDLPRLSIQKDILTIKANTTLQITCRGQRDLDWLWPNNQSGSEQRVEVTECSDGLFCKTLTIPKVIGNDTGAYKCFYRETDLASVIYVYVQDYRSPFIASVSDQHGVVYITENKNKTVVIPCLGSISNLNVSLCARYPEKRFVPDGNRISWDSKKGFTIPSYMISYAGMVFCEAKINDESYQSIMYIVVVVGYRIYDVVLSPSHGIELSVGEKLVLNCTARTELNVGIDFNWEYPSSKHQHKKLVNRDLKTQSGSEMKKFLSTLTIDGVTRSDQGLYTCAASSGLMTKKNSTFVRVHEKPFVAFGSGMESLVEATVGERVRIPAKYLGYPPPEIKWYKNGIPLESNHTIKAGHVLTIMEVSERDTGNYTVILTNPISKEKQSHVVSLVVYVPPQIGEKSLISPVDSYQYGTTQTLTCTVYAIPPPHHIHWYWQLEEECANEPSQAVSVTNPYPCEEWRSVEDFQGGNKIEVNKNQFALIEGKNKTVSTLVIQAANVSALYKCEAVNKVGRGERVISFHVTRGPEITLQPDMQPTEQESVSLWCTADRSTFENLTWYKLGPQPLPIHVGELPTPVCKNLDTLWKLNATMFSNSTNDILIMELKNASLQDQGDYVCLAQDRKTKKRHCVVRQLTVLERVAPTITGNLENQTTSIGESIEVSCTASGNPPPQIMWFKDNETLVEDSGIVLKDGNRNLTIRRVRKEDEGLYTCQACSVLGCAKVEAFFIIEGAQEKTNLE
Put plainly: covalent crosslinking (BS3) of purified Ex-KDR with [125I]PlGF, SDS/PAGE. The protocol: The reactions were then crosslinked with 1 mM BS³ at 25° C. for 15 min followed by the addition of boiling Laemmli sample buffer (10). The crosslinked products were analyzed by SDS/7.5% PAGE and the complexes were visualized using a Phosphohnager (Molecular Dynamics, Sunnyvale, Calif.).
The reactions were then crosslinked with 1 mM BS³ at 25° C. for 15 min followed by the addition of boiling Laemmli sample buffer. The crosslinked products were analyzed by SDS/7.5% PAGE and the complexes were visualized using a Phosphohnager (Molecular Dynamics, Sunnyvale, Calif.).

The target in experiment [3] is T1, sVEGF-RI, natural soluble form of the …. Description: 96 well plate competition, immobilized sFLT; reference is PlGF displacing [125I]PlGF. The protocol: as §1
Experiment [4] has the same target. Put plainly: 96 well plate competition, immobilized sFLT, tracer [125I]VEGF, competitor unlabeled PlGF. The procedure: as §1
The target is the same in experiment [5]. Put plainly: 96 well plate competition, immobilized sFLT, tracer [125I]PlGF, competitor unlabeled VEGF. The protocol:
as §1

Experiment [6] shares this target. Description: 96 well plate assay, sVEGF-RI absorbed to the plate, various amounts of [125I]VEGF, Scatchard analysis. The protocol: as §1

T1 sequence (P17948 other isoform, or with tags, fused parts or gaps): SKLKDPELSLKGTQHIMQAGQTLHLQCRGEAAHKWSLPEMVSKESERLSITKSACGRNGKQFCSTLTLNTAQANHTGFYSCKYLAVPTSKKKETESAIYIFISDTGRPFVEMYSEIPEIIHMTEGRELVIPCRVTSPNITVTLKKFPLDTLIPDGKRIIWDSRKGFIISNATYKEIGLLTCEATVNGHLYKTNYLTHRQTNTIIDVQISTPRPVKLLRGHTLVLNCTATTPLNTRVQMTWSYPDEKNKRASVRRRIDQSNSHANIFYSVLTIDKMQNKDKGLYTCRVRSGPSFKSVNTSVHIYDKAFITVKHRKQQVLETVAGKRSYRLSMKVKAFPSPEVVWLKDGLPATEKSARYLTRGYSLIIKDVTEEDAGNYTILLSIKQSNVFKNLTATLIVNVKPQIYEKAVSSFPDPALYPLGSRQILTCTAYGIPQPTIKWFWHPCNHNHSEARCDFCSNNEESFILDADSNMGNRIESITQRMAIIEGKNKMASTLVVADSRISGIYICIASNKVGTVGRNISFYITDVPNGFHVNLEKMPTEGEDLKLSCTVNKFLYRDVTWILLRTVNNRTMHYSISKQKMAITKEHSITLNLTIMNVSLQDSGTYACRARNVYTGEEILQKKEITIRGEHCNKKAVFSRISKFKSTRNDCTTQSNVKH

B1: recombinant human PlGF (ligand, UniProt P49763-2 19-149, looked up)
chain: LPAVPPQQWALSAGNGSSEVEVVPFQEVWGRSYCRALERLVDVVSEYPSEVEHMFSPSCVSLLRCTGCCGDENLHCVPVETANVTMQLLKIRSGDRPSYVELTFSQHVRCECRPLREKMKPERCGDAVPRR
modifications: 125I label (chloramine T method) in the tracer form
notes: also called PIGF
For the molecule B1, the IC50 – broadly, the concentration at which inhibition is half-maximal – is around 0.11 nM in experiment [1] and around 0.55 nM in experiment [4]. In addition, the binding result in experiment [2] was “no binding”. In addition, the “fold higher concentration to displace 50% of [125I]VEGF than of [125I]PlGF” value in experiment [3] was around 5 fold.

B2: human recombinant vascular endothelial cell growth factor (VEGF) (ligand, UniProt P15692-4 27-191, looked up)
chain: APMAEGGGQNHHEVVKFMDVYQRSYCHPIETLVDIFQEYPDEIEYIFKPSCVPLMRCGGCCNDEGLECVPTEESNITMQIMRIKPHQGQHIGEMSFLQHNKCECRPKKDRARQENPCGPCSERRKHLFVQDPQTCKCSCKNTDSRCKARQLELNERTCRCDKPRR
modifications: 125I label (chloramine T method) in the tracer form
notes: also called unlabeled VEGF
Regarding B2, the IC50 in experiment [5] came out at 0.01 nM. The Kd (in general, a measure of binding affinity in units of concentration) in experiment [6] is around 0.02 nM.
